Results on one molecule are retold here after publication PMC9224930, “VH3-53/66-Class RBD-Specific Human Monoclonal Antibody iB20 Displays Cross-Neutralizing Activity against Emerging SARS-CoV-2 Lineages” (Journal of Personalized Medicine, 2022).

The assay has as its target T1, SARS-CoV-2 Wuhan-1 receptor-binding domain (RBD) (SARS-CoV-2 (Wuhan-1), UniProt P0DTC2).
T1 construct: also called Wuhan RBD; w.t; RBD
Briefly: BLI; pairwise competition on NTA biosensors (Octet RED96): Wuhan RBD immobilised via its 6xHis tag (200 s), first antibody added (600 s), then the second (600 s). The settings on record: both partners purified. On the technique in general: BLI is a label-free optical method that tracks binding on a fibre tip over time.

B1: nAb CV30 (antibody, V domains shown)
VH: QVQLVESGGGLIQPGGSLRLSCAASGVIVSSNYMSWVRQAPGKGLEWVSVIYSGGSTYYADSVKGRFTISRDNSKNTLYLQMNSLRAEDTAVYYCARDLDVSGGMDVWGQGTTVTVSS
VL: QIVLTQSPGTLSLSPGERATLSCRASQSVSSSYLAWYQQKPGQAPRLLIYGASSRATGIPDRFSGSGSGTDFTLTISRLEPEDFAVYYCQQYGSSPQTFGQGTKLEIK
notes: also called recombinant CV30
As to B1, the binding result is “binds”.
